Consider nine substances from patent US20120114667A1.

Assay [1] addresses macaque β1 integrin chain on T cells (Macaque). Kind of assay: FACS on macaque PBMC, control antibody.
In assay [2] the target is β1 integrin chain on HT29 cells (α5 null line) (human) (UniProt P05556). Nature of the assay: FACS on HT29 cells, positive control.
For assay [3] the target is unchanged. Nature of the assay: FACS on HT29 cells, isotype control.
Assay [4] concerns the target human α5β1 integrin (human) (UniProt P08648). Nature of the assay: FACS on human α5β1-transfected against untransfected 300.19 cells, negative control.
Assay [5] shares this target. Nature of the assay: FACS on human α5β1-transfected 300.19 cells, negative control.
The target of a further assay is Macaque α5β1 (Macaque). Kind of assay: FACS on macaque PBMC, isotype control.
The target of assay [6] is macaque αV integrin chain on T cells (Macaque). Nature of the assay: FACS on macaque PBMC, control antibody.
Assay [7] addresses avb3 and avb5 integrins on A375M cells. Kind of assay: cell-based or functional assay.
In assay [8] the target is αv integrin chain on HT29 cells (human) (UniProt P06756). Nature of the assay: FACS on HT29 cells, positive control.
Assay [9] concerns the target αvβ6 integrin on HT29 cells (human) (UniProt P06756). Kind of assay: FACS on HT29 cells, positive control.
The target in assay [10] is β1 integrin chain on HT29 cells (α5 null line) (human) (UniProt P05556). Nature of the assay: FACS on HT29 cells (no α5, β1 present), control antibody to α5β1.

Chain of β1 integrin chain on HT29 cells (α5 null line) (human) (P05556 21-798): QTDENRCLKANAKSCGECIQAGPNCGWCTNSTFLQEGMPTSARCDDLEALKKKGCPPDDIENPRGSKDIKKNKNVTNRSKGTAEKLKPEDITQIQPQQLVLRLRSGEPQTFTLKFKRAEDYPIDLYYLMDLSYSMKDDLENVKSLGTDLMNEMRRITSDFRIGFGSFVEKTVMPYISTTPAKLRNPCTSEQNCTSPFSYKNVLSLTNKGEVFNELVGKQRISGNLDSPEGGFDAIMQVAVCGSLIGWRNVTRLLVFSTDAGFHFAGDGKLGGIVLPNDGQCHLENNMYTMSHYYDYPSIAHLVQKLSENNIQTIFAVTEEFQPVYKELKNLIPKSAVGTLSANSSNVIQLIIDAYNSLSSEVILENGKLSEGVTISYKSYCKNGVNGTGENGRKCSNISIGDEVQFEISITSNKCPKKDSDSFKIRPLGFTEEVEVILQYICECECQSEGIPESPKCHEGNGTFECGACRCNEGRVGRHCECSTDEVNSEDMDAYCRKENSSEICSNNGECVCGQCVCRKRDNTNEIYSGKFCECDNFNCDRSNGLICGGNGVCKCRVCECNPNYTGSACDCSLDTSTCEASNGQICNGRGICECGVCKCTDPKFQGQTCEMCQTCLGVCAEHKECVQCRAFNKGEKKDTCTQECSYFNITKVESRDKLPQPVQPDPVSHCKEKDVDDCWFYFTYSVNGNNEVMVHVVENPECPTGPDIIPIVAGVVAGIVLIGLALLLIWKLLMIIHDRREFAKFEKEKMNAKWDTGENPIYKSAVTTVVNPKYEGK
Chain of human α5β1 integrin (human) (P08648 42-1049, chain 1 of 2): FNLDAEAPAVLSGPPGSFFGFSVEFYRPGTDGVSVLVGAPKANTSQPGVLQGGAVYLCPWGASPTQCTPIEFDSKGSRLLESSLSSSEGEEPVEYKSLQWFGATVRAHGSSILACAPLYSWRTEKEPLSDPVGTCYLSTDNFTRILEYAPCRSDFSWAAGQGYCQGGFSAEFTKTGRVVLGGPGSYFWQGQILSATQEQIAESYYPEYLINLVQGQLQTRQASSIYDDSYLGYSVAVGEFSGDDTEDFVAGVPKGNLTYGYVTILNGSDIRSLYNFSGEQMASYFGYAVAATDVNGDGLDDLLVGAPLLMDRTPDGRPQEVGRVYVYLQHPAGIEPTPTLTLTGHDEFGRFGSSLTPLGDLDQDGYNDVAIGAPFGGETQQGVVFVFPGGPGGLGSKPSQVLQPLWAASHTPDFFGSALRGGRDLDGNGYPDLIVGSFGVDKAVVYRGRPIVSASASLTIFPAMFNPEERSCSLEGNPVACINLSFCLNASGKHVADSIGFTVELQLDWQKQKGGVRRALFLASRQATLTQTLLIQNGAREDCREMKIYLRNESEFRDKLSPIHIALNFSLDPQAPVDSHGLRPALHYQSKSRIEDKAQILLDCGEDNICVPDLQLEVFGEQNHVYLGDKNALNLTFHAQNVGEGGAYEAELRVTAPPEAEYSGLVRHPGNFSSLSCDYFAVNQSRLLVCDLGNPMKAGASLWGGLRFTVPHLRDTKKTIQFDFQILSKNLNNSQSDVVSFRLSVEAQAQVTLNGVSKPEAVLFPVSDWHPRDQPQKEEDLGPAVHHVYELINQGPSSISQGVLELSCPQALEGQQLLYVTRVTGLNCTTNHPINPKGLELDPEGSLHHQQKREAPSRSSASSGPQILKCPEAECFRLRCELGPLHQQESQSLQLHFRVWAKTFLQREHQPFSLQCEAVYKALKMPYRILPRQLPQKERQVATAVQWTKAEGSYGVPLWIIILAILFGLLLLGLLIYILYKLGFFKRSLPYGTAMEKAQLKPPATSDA
Chain of human α5β1 integrin (human) (P05556 21-798, chain 2 of 2, further chain): as the sequence (P05556 21-798) above
Chain of αv integrin chain on HT29 cells (human) (P06756 31-1048): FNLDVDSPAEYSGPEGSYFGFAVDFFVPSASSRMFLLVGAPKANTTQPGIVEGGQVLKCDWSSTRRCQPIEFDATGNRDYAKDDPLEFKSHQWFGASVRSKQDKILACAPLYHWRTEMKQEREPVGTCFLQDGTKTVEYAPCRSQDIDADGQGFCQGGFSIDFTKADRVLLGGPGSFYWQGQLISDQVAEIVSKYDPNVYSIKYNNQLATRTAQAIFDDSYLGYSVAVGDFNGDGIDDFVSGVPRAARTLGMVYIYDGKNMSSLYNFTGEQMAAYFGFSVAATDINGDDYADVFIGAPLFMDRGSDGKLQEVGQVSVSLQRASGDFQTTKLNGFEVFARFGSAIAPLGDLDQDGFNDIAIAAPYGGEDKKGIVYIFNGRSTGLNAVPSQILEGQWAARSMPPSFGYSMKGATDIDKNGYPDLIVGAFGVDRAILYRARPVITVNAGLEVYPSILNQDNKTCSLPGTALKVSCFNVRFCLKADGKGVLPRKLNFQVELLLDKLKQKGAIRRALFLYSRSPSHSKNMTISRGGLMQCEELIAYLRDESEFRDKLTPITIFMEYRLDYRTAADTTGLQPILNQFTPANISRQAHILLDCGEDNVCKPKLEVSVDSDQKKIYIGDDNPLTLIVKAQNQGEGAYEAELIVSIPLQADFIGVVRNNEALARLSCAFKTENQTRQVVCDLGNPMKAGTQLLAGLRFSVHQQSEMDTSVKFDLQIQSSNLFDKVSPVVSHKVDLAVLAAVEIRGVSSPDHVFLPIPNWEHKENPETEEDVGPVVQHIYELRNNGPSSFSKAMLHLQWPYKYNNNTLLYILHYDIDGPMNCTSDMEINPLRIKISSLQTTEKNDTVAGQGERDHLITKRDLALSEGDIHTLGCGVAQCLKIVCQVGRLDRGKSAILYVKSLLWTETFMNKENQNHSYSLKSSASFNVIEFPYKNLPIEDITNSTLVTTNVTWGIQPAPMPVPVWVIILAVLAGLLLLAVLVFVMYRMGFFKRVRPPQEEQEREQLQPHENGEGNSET
Chain of αvβ6 integrin on HT29 cells (human) (P06756 31-1048, chain 1 of 2): as the sequence (P06756 31-1048) above
Chain of αvβ6 integrin on HT29 cells (human) (P18564 22-788, chain 2 of 2, further chain): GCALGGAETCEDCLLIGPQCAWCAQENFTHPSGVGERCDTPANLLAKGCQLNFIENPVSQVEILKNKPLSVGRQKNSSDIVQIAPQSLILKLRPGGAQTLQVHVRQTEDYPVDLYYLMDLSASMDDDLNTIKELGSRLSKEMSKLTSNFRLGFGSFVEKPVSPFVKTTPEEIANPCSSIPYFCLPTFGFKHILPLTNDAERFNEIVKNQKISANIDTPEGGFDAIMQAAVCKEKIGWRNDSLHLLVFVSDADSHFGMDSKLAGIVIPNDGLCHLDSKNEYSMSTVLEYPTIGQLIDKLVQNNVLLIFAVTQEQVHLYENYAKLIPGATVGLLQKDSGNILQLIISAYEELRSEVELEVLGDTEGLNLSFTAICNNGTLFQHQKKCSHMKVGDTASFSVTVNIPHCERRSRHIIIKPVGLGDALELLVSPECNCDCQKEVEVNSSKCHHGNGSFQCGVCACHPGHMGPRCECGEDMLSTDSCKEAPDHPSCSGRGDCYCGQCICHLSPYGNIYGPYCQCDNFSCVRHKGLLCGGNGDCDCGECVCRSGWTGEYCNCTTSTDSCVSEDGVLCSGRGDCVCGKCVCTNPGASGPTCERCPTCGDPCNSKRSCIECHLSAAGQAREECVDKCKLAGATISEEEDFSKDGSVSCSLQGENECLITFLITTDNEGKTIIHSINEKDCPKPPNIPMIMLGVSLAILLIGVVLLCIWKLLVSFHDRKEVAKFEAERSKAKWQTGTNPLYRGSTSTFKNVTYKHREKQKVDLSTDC

In assay [1], 4b4 anti beta1 (antibody) returned a Geo Mean on Macaque T-cells IgG detection of 141. This substance displayed a Binding Geomean in assay [2] of 362.

Human IgG2 (antibody) displayed a Binding Geomean in [3] of 2.84. In addition, in [4], the Ratio (α5β1 expressing cells / parental cells) is 0.8. Besides, the X Geo Mean in [5] came to 12.

Turning to Human IgG2/4, the Geo Mean on Macaque T-cells IgG detection with Macaque α5β1 (Macaque) is 3.

In assay [3], Human IgG4 (antibody) yielded a Binding Geomean of 3.2.

For the substance L230 (antibody), the Geo Mean on Macaque T-cells IgG detection in assay [6] came to 3. Besides, in assay [7], the Osteopontin Adhesion (% inhibition) at 5 ug/ml, A375M cells stood at 97% and the Vitronectin Adhesion (% inhibition) at 5 ug/ml, A375M cells amounted to 96%. Moreover, in [8], the Binding Geomean was 294.

The substance MAB2077Z avb6 (antibody) yielded a Binding Geomean in assay [9] of 39.2.

The substance Mouse IgG1 (antibody) returned a Binding Geomean in assay [3] of 2.55. Also, in assay [4], the Ratio (α5β1 expressing cells / parental cells) stood at 0.9. In the assay with Macaque α5β1 (Macaque), the Geo Mean on Macaque T-cells IgG detection turned out to be 2. This substance also returned a X Geo Mean in assay [5] of 14.9.

The substance Mouse IgG2a (antibody) had a Binding Geomean in assay [3] of 10.2.

In turn, mAb 1969 (antibody) yielded a Binding Geomean in assay [10] of 2.69.
